B1: TPR t1 (parent)
chain: GACCAAUCUGCCCUCAGAGCUCGAGAACAUCUUCGGAUGCAGAGGAGGCAGGCUUCGGUGGCGCGAUAGCGCCAACGUCCUCAACCUCCAAUGCAUCCCACCACAUGAUGAUGCCUGAAGAGCCUUGGUUUUUUG

Variants of: B1
Assay: polymerase ribozyme fitness, log enrichment relative to wild type (log ratio); higher = more active; in vitro selection for triplet polymerase activity
Method in brief: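 Each subunit of a heterodimeric triplet polymerase ribozyme was mutagenized into a library by PCR, transcribed, and subjected to one round of in vitro selection, run in triplicate. Libraries were annealed with a biotinylated primer, the partner subunit and triplets, incubated frozen at −7 °C, and extended constructs were gel-excised, captured on streptavidin beads and recovered by RT-PCR. Input and output libraries were sequenced on Illumina, keeping genotypes with ≥10 input reads and ≥1 read per output. Fitness is log base 2 of genotype enrichment divided by wild-type enrichment, from inverse-variance-weighted replicate averages.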

Variant | polymerase ribozyme fitness (log ratio)
A6G C79G C104A | -4.14
A5U C40U G42C | -2.03
A5U U21C C72G C97U | -1.7
A5U U14G A41U G60C C115U | -4.57
A6G A29U A37G C56U C62G U87G A105C G117C | -5.41
A5U C8U A46G G60U A66U | -1.11
A5U C11A G63U G93U | -3.79
A6C A27C G110C U130C | -6.2
A6G A91C | -1.54
A6G C62U G110C | -4.63
A6G C11U C98A | -5.05
A5U C22A G60U | -6.59
A6G U7C C12U G23U C70U C72A U87G | -6.73
A6G A24G C73A | -1.35
A5U C53A C104U G113C | -1.6
A6G G36C C72U C80A U116A C123A | -5.42
A6C C72U A105C U131C | -2.59
A5U U21G U55C G61U C79U C114A U126A | -1.56
A5U C20A U33A A37G C49G G52A U78A A111U | -5.53
A6C U78C | -0.721
A6C G58C U92G C114A U130A | -4.44
A5U G44A C56U G117A | -3.69
A6G C102A | -1.96
A6C G61A C115U | -1.31

Variant | polymerase ribozyme fitness (log ratio)
A6G U7C A74C C80G U112G | -6.27
A6G G71A C82A A111U | -4.56
A5U G44C C70U A84C C104A G117C | -7.15
A6C C82A C89A | -2.13
A5U C13G G63A C89U U92A G120A | -5.85
A5U C12A U21G C49A C72G | -2.35
A6C G44C G58A U96A | -2.15
A6C U7A C8G C13A G42C C72A C76G | -2.51
A6G C12U C22U A50G C56A | -4.54
A6U A16U | -1.42
A6C G36U U96G G120C G122A | -0.981
A5U C28U C72A U78C | -1.78
A5U C70G U106A C114U | -5.21
A6G G48U | -0.663
A6G C123A | 1.64
A5U G63A U125A | -2.08
A6G G36A | -0.889
A6G U7G G44U G58C G113A | -0.812
A5U C8U C101G | -1.15
A5U C56U | -0.648
A5U C56G | -1.04
A6G A41C C76U C115U U130A U133A | -2.77
A6C G58C G60U A95C | -1.05
A6G C13U G51U C82U C94A A111G | -3.66

Variant | polymerase ribozyme fitness (log ratio)
A5U G71A | -1.5
A6G C34U G60U C72U U116A C124A | -4.04
A5U C15G A43G U54G C114U G122U | -6.04
A5U G10U C49G C62G | -4.17
A5U C12U G71U | -0.82
A6G A41C C56A G69C G93U G117C | -6.65
A5U U87G U130C | 0.627
A6C C72G | -0.682
A6G G47U C64U C99A G120A | -5.98
A6C C76U C101G G122A C124U U129A | -2.42
A6G C12U U30C A108G | 0.259
A6G C13U C72U C102U G122A | -2.6
A5U C62G A100U G120U | -3.08
A6U A16G G63U C89U | -3.25
A6C G23A C98A C115G | -7.8
A5U C64U G117A | -2.55
A6C A105G U112C G127A | -2.69
A5U C56G C70A | -3.29
A6C C101A U132A | -1.42
A6C A50C C70A G127U | -4.88
A5U C28U A37U C104U C123G | -3.39
A6C U9G G47C G63A A83U G120U | -1.35
A6C U9G G77C A105G U126A | -4.13
A6C A105C U130C | -1.78

Variant | polymerase ribozyme fitness (log ratio)
A5U G60A U78A C97U | -1.08
A6C C62G G113A | -3.34
A6C A41U U106A | -1.37
A6G A29G C72G C82G C89A G120C | -4.07
A6G U38G G47U G117A G120C | -5.06
A6C C28G U30A G51U G69A C70A C115A G128C | -6.73
A6C C72U G93U A100U | -2.39
A6G A43G G69U | -0.0956
A6C C88U | -0.228
A6C A29U C49A A66C G71C A119U | -4.4
A5U C12U U21A A84G | -2.37
A5U C8G C88U C97U G113C | -1.99
A6C C12A A84G U92C U106G G113C | -5.99
A6U A18U A74C C85G C115A U129G | -4.74
A6G C12A G23C A66G C114U G128A | -5.09
A5U C12G G58C A90U C124G G128A | -2.47
A6C G61A | -0.848
A5U G113C | -2.11
A5U G113A | -1.04
A6G U9A C34U | -3.96
A6C G57C C70U | -0.399
A6G C22U G44C C88U | -6.05
A5U U9A A18U | -2.06
A6G U54A G93A | -0.596

Variant | polymerase ribozyme fitness (log ratio)
A6C U32A C64U A111G | -4.1
A5U C8U C40U C123A | 1.55
A5U G110U U130A | -2.41
A5U U21A | 0.185
A5U C28U G69A C124U U133G | -4.96
A6C C12U U38G C80U | -1.42
A6C G35U G39A G61U A74C C86U C101A C115U | -6.88
A5U C20A G69U C98G C123G | -2.75
A6G A43G | -2.57
A6G A41C C56A G93U G117C | -4.14
A5U U125A U133G | -0.817
A5U C13U G47A G63U A91U U109C G127C | -6.28
A6C C11A A18C C73U | -4.87
A5U C72U G113U G120U U130C | -4.48
A5U G61C | -1.74
A6G C13U C98U A119U | -2.09
A6G C72U U112G | 0.809
A6C C12G G57U | -0.469
A5U C11G | -0.477
A5U C11U | -1.46
A6C C8G G44C C64U U78C | -1.41
A5U C22U A50U U54G | -6.42
A6G G63U | -1.16
A6G G63C | 0.397

Variant | polymerase ribozyme fitness (log ratio)
A6C C13U U33A G45U G51C A68U A121U G122U | -6.98
A6G A83U | -0.371
A6G U7A C53U C80G C101A | -5.66
A6C G61A U92A | -3.09
A6G U9C | 0.178
A5U G60U U116C | -1.69
A6C G47C G71U | -2.53
A6C G57C C79A C85U | -2.83
A6C C13U A37C G69U C98G | -4.9
A5U G52C C62A U112A | -0.939
A5U U7A A91G C114A | -1.75
A5U G63A | -0.665
A5U G63U | -1.8
A6C U7C | -0.0861
A6G U59C | -0.609
A6U A18U G60U U112C | -0.222
A6G C99A C123U | -5.05
A5U C73G C94G | -2.07
A5U U33G C76A C80A A83C G113U A119U | -6.4
A5U C72U C114U | -2.7
A6C U9C C13U G17A G58A A121G | 0.229
A5U C28U C62G | -5.59
A5U C12A C22G A27C U38G A111U | -2.81
A5U C72U | -0.719

Variant | polymerase ribozyme fitness (log ratio)
A6C U9C A46C G61A C62U C82U | -3.08
A6G A50G U112C | 1.56
A6C C70A C73U | -2.44
A6C C11U G63C | -1.94
A6C U38A C115A | -1.35
A5U C8G C80A A83U | -3.88
A6G U7C | -0.442
A5U C8G G19A A43U U54A C70G | -4.96
A6C C15A U33G C124G | -5.85
A6C G107U | -4.64
A6C U30G A43C C88U C97G U109G | -6.22
A6G A90U | -0.939
A6C A50U G58A G60C C70U | -3.42
A5U G113U C124A | -3.25
A6C C8A C49A C56U | -0.31
A6G U21C C114A | -0.942
A5U C15U G48A C70A | -3.43
A6C C11A C72G C85U U112G | -2.46
A5U U7C C8U C11U C86A | -1.5
A6C U21G G39U C72G C85A C124U G128A U133A | -3.4
A5U C12G C49G U81A G127A | -4.64
A6C A121U | 1.95
A5U U126A | -0.78
